From the supplement of paper PMC12042874
± gives the uncertainty stated by the source.

test: amyloid nucleation score (Sup35N fusion, yeast selection) (log enrichment); library NNK1; higher = more nucleation; inactive = no reads after selection
In short: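 On medium lacking adenine and uracil, psi-negative yeast expressing peptides of 20 random codons fused to Sup35N were grown 7 days at 30°C after a 24-hour induction with 100 μM copper sulfate. Illumina sequencing of input and output plasmid inserts gave the reads, and sequences under 100 input reads were excluded. The nucleation score is the DiMSum log enrichment of output over input reads, centred on the mode score of non-aggregating sequences.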

For VYQKWLG, which amyloid nucleation score is on record?
Its amyloid nucleation score is -0.778 ± 0.46.

With VYRIAMIF as the substance, how does the amyloid nucleation score read?
The amyloid nucleation score was 1.22 ± 0.31.

Which amyloid nucleation score does the source give for VYRLRLVFKVSYFIIECHKG here?
The amyloid nucleation score was -0.851 ± 0.4.

For VYRNASLCVSEVL, which amyloid nucleation score is on record?
Its amyloid nucleation score is 0.211 ± 0.97.

Which amyloid nucleation score does the source give for VYRVAKASM here?
Its amyloid nucleation score is -0.35 ± 1.9.

With VYWMFV as the substance, how does the amyloid nucleation score read?
Its amyloid nucleation score is 0.369 ± 0.3.

For VYYLGVKAFLFNSSF, which amyloid nucleation score is on record?
The amyloid nucleation score was 0.824 ± 0.54.

For WAFIHSCRYKLTCGGYFYAR, which amyloid nucleation score is on record?
Its amyloid nucleation score is -0.236 ± 1.2.

Which amyloid nucleation score does the source give for WAICDSLLVLVSRKGSASSP here?
Its amyloid nucleation score is -1.56 ± 1.4.

With WAILLSWGYKGSRAWWFFSI as the substance, how does the amyloid nucleation score read?
The amyloid nucleation score was -0.721 ± 0.49.

Which amyloid nucleation score does the source give for WAMREEVYSNSFSFMFALYW here?
The amyloid nucleation score was 0.651 ± 0.36.

Which amyloid nucleation score does the source give for WASELVRHHNDKINCSLRCG here?
Its amyloid nucleation score is -0.253 ± 0.84.

With WASTLEDVMRQEKVHLWMIG as the substance, how does the amyloid nucleation score read?
The amyloid nucleation score was -0.242 ± 0.3.

Which amyloid nucleation score does the source give for WCKILYAKQERWP here?
Its amyloid nucleation score is 0.677 ± 0.44.

With WCLESINFRRMCMASSG as the substance, how does the amyloid nucleation score read?
Its amyloid nucleation score is 0.893 ± 0.41.

Which amyloid nucleation score does the source give for WCNNYLSRLCRRVINLEAGL here?
Its amyloid nucleation score is -1.13 ± 1.9.

With WCRDLHKLYLY as the substance, how does the amyloid nucleation score read?
The amyloid nucleation score was -0.2 ± 0.56.

For WCSTQLVRKIKVFEKSERGV, which amyloid nucleation score is on record?
The amyloid nucleation score was -1.07 ± 2.1.

With WCVFAFMKSQQCK as the substance, how does the amyloid nucleation score read?
The amyloid nucleation score was -0.112 ± 0.22.

With WCVLTSMEAYWFGLSRN as the substance, how does the amyloid nucleation score read?
The amyloid nucleation score was 0.869 ± 0.54.

For WCVYNFSCALISPY, which amyloid nucleation score is on record?
The amyloid nucleation score was 6.018 ± 0.054.

For WCWLCVKRR, which amyloid nucleation score is on record?
The amyloid nucleation score was -0.108 ± 0.56.

With WDATLNKITYKRSLVGSVSK as the substance, how does the amyloid nucleation score read?
The amyloid nucleation score was 0.275 ± 0.58.

For WDDSINCTTK, which amyloid nucleation score is on record?
Its amyloid nucleation score is “inactive”.

With WDFFYLMSMLPRDEVGFL as the substance, how does the amyloid nucleation score read?
Its amyloid nucleation score is 0.756 ± 0.46.

Which amyloid nucleation score does the source give for WDHQNMNLYYIKYGMVMNQS here?
Its amyloid nucleation score is 3.17 ± 0.067.

With WDSLDIHQFNKDMWQTSG as the substance, how does the amyloid nucleation score read?
The amyloid nucleation score was -0.909 ± 0.9.

Which amyloid nucleation score does the source give for WDTPFFCPSRNFRRATGPYP here?
The amyloid nucleation score was 0.983 ± 0.53.

With WEVSPIGVPYSY as the substance, how does the amyloid nucleation score read?
The amyloid nucleation score was -0.117 ± 0.57.

With WFAFIWNNRKCNFRKGTRDV as the substance, how does the amyloid nucleation score read?
The amyloid nucleation score was 6.11 ± 0.075.

With WFFRLLAMSRRTEVAGTSPL as the substance, how does the amyloid nucleation score read?
The amyloid nucleation score was 0.941 ± 0.65.

With WFIAL as the substance, how does the amyloid nucleation score read?
Its amyloid nucleation score is -0.068 ± 0.61.

Which amyloid nucleation score does the source give for WFMPTSRSKVVYLPSYRCNE here?
Its amyloid nucleation score is 0.432 ± 0.2.

Which amyloid nucleation score does the source give for WFSTDGWKNMSDSLASWSCY here?
Its amyloid nucleation score is 0.863 ± 0.42.

For WFSVDFNNHLWFQNSYSMWG, which amyloid nucleation score is on record?
Its amyloid nucleation score is 0.156 ± 0.43.

For WFTAHMCDNHYSTIPNSPRQ, which amyloid nucleation score is on record?
The amyloid nucleation score was 1 ± 0.81.

With WFTDLRNRGVVNTYTPIV as the substance, how does the amyloid nucleation score read?
Its amyloid nucleation score is -0.131 ± 0.29.

Which amyloid nucleation score does the source give for WFVNIEGREEWKYHKGCEPK here?
Its amyloid nucleation score is 0.758 ± 0.49.

Which amyloid nucleation score does the source give for WGFESFSAWATMCERSRWHR here?
The amyloid nucleation score was 0.428 ± 0.55.

With WGICDLKVCVQPCPSSNARI as the substance, how does the amyloid nucleation score read?
The amyloid nucleation score was -0.059 ± 0.57.

Which amyloid nucleation score does the source give for WGKLTKQERGWDNDKVNQEC here?
The amyloid nucleation score was 0.094 ± 0.4.

For WGMCFAVPNISTGLNNYTMP, which amyloid nucleation score is on record?
Its amyloid nucleation score is -0.234 ± 0.64.

For WGNLCRNYD, which amyloid nucleation score is on record?
The amyloid nucleation score was 0.004 ± 0.28.

For WHALVNRGHAWSRIGQDAGC, which amyloid nucleation score is on record?
The amyloid nucleation score was -0.003 ± 0.79.

For WHGVFKTRNRLCGTLPWFCA, which amyloid nucleation score is on record?
The amyloid nucleation score was -0.143 ± 0.51.

Which amyloid nucleation score does the source give for WHQEWRKWADKGLAIRT here?
Its amyloid nucleation score is 0.836 ± 0.97.

With WHRDVGFTLISVTPFCMMGG as the substance, how does the amyloid nucleation score read?
Its amyloid nucleation score is 1.54 ± 0.33.

Which amyloid nucleation score does the source give for WITYHEFWRLTKGCLSFTDL here?
Its amyloid nucleation score is 0.023 ± 0.55.

For WKIRKKA, which amyloid nucleation score is on record?
Its amyloid nucleation score is 0.155 ± 0.7.

With WLETRP as the substance, how does the amyloid nucleation score read?
The amyloid nucleation score was -0.226 ± 0.33.

For WLHIPYS, which amyloid nucleation score is on record?
Its amyloid nucleation score is 0.547 ± 0.61.

For WLISLFRDDDRFNKVSKRAA, which amyloid nucleation score is on record?
The amyloid nucleation score was -0.3 ± 0.38.

With WLMAKGRYLSAFTVSFIRSY as the substance, how does the amyloid nucleation score read?
Its amyloid nucleation score is -1.28 ± 1.8.

With WLPMPSV as the substance, how does the amyloid nucleation score read?
Its amyloid nucleation score is 0.411 ± 0.47.

For WLRMYLGINFSVRYCGRRVE, which amyloid nucleation score is on record?
Its amyloid nucleation score is 0.465 ± 0.48.

For WLSRSSFMKLCSTKFPRWRL, which amyloid nucleation score is on record?
Its amyloid nucleation score is -0.494 ± 1.1.

For WLTNWFEPRWSLVMQSVRCP, which amyloid nucleation score is on record?
The amyloid nucleation score was -0.121 ± 0.44.

For WLTVITADSMAEGRQACRLP, which amyloid nucleation score is on record?
The amyloid nucleation score was 0.132 ± 0.46.

Which amyloid nucleation score does the source give for WLVAHAPGH here?
The amyloid nucleation score was 0.471 ± 0.62.

For WLWIRFIAVTSSSVEIRANS, which amyloid nucleation score is on record?
Its amyloid nucleation score is -0.834 ± 0.54.

With WMNGGQRSVWMCCMGRMHPW as the substance, how does the amyloid nucleation score read?
The amyloid nucleation score was 7.738 ± 0.054.

Which amyloid nucleation score does the source give for WNIRRIRSDTRTLFKCNL here?
Its amyloid nucleation score is 0.636 ± 0.32.

With WNNGVLLNRV as the substance, how does the amyloid nucleation score read?
Its amyloid nucleation score is 0.792 ± 0.41.

For WNYTGSFFMQYSMGISRRDG, which amyloid nucleation score is on record?
Its amyloid nucleation score is 1.59 ± 0.2.
